Assay results published in patent publication CN114031685A (INST MILITARY MEDICINE ACADEMY MILITARY SCIENCES PLA, dated 2022).

Legend:
[1] = target: SARS-CoV-2 WT S-ECD蛋白 (新冠野生株, Genbank NC_045512.2) (SARS-CoV-2, UniProt P0DTC2 14-1213)
[2] = target: Gamma株 S蛋白 (on pseudovirus) (SARS-CoV-2 Gamma株 (P.1)); assay: cell-based or functional assay
[3] = target: Alpha株 S蛋白 (on pseudovirus) (SARS-CoV-2 Alpha株 (B.1.1.7)); assay: cell-based or functional assay
[4] = target: Delta株 S蛋白 (on pseudovirus / live virus) (SARS-CoV-2 Delta株 (B.1.617.2)); assay: cell-based or functional assay
[5] = target: Omicron株 S蛋白 (on pseudovirus) (SARS-CoV-2 Omicron株 (B.1.1.529)); assay: cell-based or functional assay
[6] = target: Beta株 S蛋白 (on pseudovirus / live virus) (SARS-CoV-2 Beta株 (B.1.351)); assay: cell-based or functional assay

B1: 抗SARS-CoV-2全人源单克隆抗体ZW2G10 (antibody, V domains shown)
VH: EVQLVESGGGLVQPGRSLRLSCAASGFTFDDYAMHWVRQAPGKGLEWVSGITWNSGTIGYADSVKGRFIISRDNAKNSLHLQMNSLRVEDTALYYCAKDNSDYSGYYWELENYGMDVWGQGTTVTVSS
VL: QSVLTQPPSVSGAPGQRVTISCTGSSSNIGAGYDVHWYQQLPGTAPKLLIYDNNNRPSGVPDRFSGSKSGTSASLAITGLQAEDEADYYCQSFDSSLSGVVFGGGTRLTVLR
notes: also called 单抗ZW2G10
- Kd [1]: 243 pM
- 假病毒中和 EC50 [2]: 0.0156 µg/mL
- 假病毒中和 EC50 [3]: 0.0141 µg/mL
- 假病毒中和 EC50 [4]: 0.0362 µg/mL
- 真病毒中和 EC50 (Vero E6) [4]: 0.71 µg/mL
- 假病毒中和 EC50 [5]: 0.0193 µg/mL
- 假病毒中和 EC50 [6]: 0.0184 µg/mL
- 真病毒中和 EC50 (Vero E6) [6]: 1.42 µg/mL
